Measured values from PMC2290880 (The Journal of Cell Biology, 1993).

Biological target: T1, Sec63p (Saccharomyces cerevisiae (endogenous in …, UniProt P14906 1-663))
T1 sequence (looked up): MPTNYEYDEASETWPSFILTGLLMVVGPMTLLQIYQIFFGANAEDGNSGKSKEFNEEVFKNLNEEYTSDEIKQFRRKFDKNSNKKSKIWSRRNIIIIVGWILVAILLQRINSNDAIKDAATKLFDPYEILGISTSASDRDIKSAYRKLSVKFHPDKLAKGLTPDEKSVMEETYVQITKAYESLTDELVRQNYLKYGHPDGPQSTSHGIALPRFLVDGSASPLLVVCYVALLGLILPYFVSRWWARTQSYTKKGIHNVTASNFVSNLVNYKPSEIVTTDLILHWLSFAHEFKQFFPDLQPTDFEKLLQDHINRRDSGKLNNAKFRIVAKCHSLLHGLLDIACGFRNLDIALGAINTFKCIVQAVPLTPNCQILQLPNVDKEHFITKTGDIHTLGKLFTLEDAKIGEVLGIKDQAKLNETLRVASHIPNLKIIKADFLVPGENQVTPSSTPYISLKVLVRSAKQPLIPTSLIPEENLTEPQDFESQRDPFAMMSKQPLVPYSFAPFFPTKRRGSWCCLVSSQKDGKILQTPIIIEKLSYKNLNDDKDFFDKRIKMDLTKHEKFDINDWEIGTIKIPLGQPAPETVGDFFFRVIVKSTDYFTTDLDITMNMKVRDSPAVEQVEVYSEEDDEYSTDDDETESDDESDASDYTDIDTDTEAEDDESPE
Test: co-elution on hydroxylapatite chromatography

B1: BiP/Kar2p (natural protein)
chain: not shown
**Q.** With B1 as the binder, how does the “stoichiometry N” value read?
**A.** 1.4 Sec63p per BiP
